Measured values reported in the supplement of paper PMC5998384.

Columns and labels:
[1] = test system: HeLa Kyoto; test: thermal stability score vs G1/S (z-score of summed log2 fold changes over temperatures); higher = more thermally stable than in G1/S
[2] = test system: HeLa Kyoto; test: melting temperature (median over replicates), in situ; higher = more thermally stable
[3] = test system: HeLa Kyoto; test: solubility in G1/S (NP-40 vs SDS abundance) (log2 ratio); higher = more soluble; details: cell cycle stage: G1/S
[4] = test system: HeLa Kyoto; test: solubility change mitosis vs G1/S (difference of NP-40 vs SDS log2 ratios) (log2 ratio difference); higher = more soluble in mitosis
[5] = cell cycle stage: early G1 (4.5 h after nocodazole release)
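Wherever melting temperature (median over replicates), in situ is given: HeLa Kyoto cells synchronized by double thymidine or nocodazole block, proteins quantified by TMT10plex mass spectrometry, three independent biological replicates.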
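Wherever solubility change mitosis vs G1/S (difference of NP-40 vs SDS log2 ratios) is given: synchronized HeLa Kyoto cells (double thymidine block for G1/S, nocodazole release for mitosis), protein amounts in NP-40 versus SDS lysates quantified by mass spectrometry, three biological replicates.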
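Wherever solubility in G1/S (NP-40 vs SDS abundance) is given: HeLa Kyoto cells arrested at G1/S by double thymidine block, proteins quantified by TMT10plex mass spectrometry in mild NP-40 versus SDS extracts, three biological replicates.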
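Wherever thermal stability score vs G1/S (z-score of summed log2 fold changes over temperatures) is given: synchronized HeLa Kyoto cells, proteins quantified by TMT10plex mass spectrometry, three biological replicates, mitosis taken 0.5 h after nocodazole release, G1/S directly after double thymidine block.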

| Sequence | thermal stability score [1, 5] | thermal stability score ([1]; cell cycle stage: mitosis) | melting temperature ([2]; cell cycle stage: G1/S) [°C] | melting temperature ([2]; cell cycle stage: mitosis) [°C] | solubility in G1/S (log2) [3] | solubility change mitosis (log2) [4] |
| --- | --- | --- | --- | --- | --- | --- |
| MSNTTVVPSTAGPGPSGGPGGGGGGGGGGGGTEVIQVTNVSPSASSEQMRTLFGFLGKIDELRLFPPDDSPLPVSSRVCFVKFHDPDSAVVAQHLTNTVFVDRALIVVPYAEGVIPDEAKALSLLAPANAVAGLLPGGGLLPTPNPLTQIGAVPLAALGAPTLDPALAALGLPGANLNSQSLAADQLLKLMSTVDPKLNHVAAGLVSPSLKSDTSSKEIEEAMKRVREAQSLISAAIEPDKKEEKRRHSRSRSRSRRRRTPSSSRHRRSRSRSRRRSHSKSRSRRRSKSPRRRRSHSRERGRRSRSTSKTRDKKKEDKEKKRSKTPPKSYSTARRSRSASRERRRRRSRSGTRSPKKPRSPKRKLSRSPSPRRHKKEKKKDKDKERSRDERERSTSKKKKSKDKEKDRERKSESDKDVKQVTRDYDEEEQGYDSEKEKKEEKKPIETGSPKTKECSVEKGTGDSLRESKVNGDDHHEEDMDMSD [SRSF11] | 1.04 | 3.54 | 49.7 | 50.4 | -0.739 | 0.175 |
| MSNYSVSLVGPAPWGFRLQGGKDFNMPLTISSLKDGGKAAQANVRIGDVVLSIDGINAQGMTHLEAQNKIKGCTGSLNMTLQRASAAPKPEPVPVQKGEPKEVVKPVPITSPAVSKVTSTNNMAYNKAPRPFGSVSSPKVTSIPSPSSAFTPAHATTSSHASPSPVAAVTPPLFAASGLHANANLSADQSPSALSAGKTAVNVPRQPTVTSVCSETSQELAEGQRRGSQGDSKQQNGPPRKHIVERYTEFYHVPTHSDASKKRLIEDTEDWRPRTGTTQSRSFRILAQITGTEHLKESEADNTKKANNSQEPSPQLASSVASTRSMPESLDSPTSGRPGVTSLTAAAAFKPVGSTGVIKSPSWQRPNQGVPSTGRISNSATYSGSVAPANSALGQTQPSDQDTLVQRAEHIPAGKRTPMCAHCNQVIRGPFLVALGKSWHPEEFNCAHCKNTMAYIGFVEEKGALYCELCYEKFFAPECGRCQRKILGEVISALKQTWHVSCFVCVACGKPIRNNVFHLEDGEPYCETDYYALFGTICHGCEFPIEAGDMFLEALGYTWHDTCFVCSVCCESLEGQTFFSKKDKPLCKKHAHSVNF [PDLIM5] | -0.121 | 0.334 | 52.1 | 52.6 | 0.0686 | 0.0095 |
| MSPAPDAAPAPASISLFDLSADAPVFQGLSLVSHAPGEALARAPRTSCSGSGERESPERKLLQGPMDISEKLFCSTCDQTFQNHQEQREHYKLDWHRFNLKQRLKDKPLLSALDFEKQSSTGDLSSISGSEDSDSASEEDLQTLDRERATFEKLSRPPGFYPHRVLFQNAQGQFLYAYRCVLGPHQDPPEEAELLLQNLQSRGPRDCVVLMAAAGHFAGAIFQGREVVTHKTFHRYTVRAKRGTAQGLRDARGGPSHSAGANLRRYNEATLYKDVRDLLAGPSWAKALEEAGTILLRAPRSGRSLFFGGKGAPLQRGDPRLWDIPLATRRPTFQELQRVLHKLTTLHVYEEDPREAVRLHSPQTHWKTVREERKKPTEEEIRKICRDEKEALGQNEESPKQGSGSEGEDGFQVELELVELTVGTLDLCESEVLPKRRRRKRNKKEKSRDQEAGAHRTLLQQTQEEEPSTQSSQAVAAPLGPLLDEAKAPGQPELWNALLAACRAGDVGVLKLQLAPSPADPRVLSLLSAPLGSGGFTLLHAAAAAGRGSVVRLLLEAGADPTVQDSRARPPYTVAADKSTRNEFRRFMEKNPDAYDYNKAQVPGPLTPEMEARQATRKREQKAARRQREEQQQRQQEQEEREREEQRRFAALSDREKRALAAERRLAAQLGAPTSPIPDSAIVNTRRCWSCGASLQGLTPFHYLDFSFCSTRCLQDHRRQAGRPSS [ANKZF1] | 0.638 | 1.02 | 49.7 | 50.1 | 0.0804 | -0.104 |
| MSPKRIAKRRSPPADAIPKSKKVKVSHRSHSTEPGLVLTLGQGDVGQLGLGENVMERKKPALVSIPEDVVQAEAGGMHTVCLSKSGQVYSFGCNDEGALGRDTSVEGSEMVPGKVELQEKVVQVSAGDSHTAALTDDGRVFLWGSFRDNNGVIGLLEPMKKSMVPVQVQLDVPVVKVASGNDHLVMLTADGDLYTLGCGEQGQLGRVPELFANRGGRQGLERLLVPKCVMLKSRGSRGHVRFQDAFCGAYFTFAISHEGHVYGFGLSNYHQLGTPGTESCFIPQNLTSFKNSTKSWVGFSGGQHHTVCMDSEGKAYSLGRAEYGRLGLGEGAEEKSIPTLISRLPAVSSVACGASVGYAVTKDGRVFAWGMGTNYQLGTGQDEDAWSPVEMMGKQLENRVVLSVSSGGQHTVLLVKDKEQS [RCC1] | 1.88 | 3.04 | 48 | 49.1 | -0.0854 | 0.0534 |
| MSPPSPGRRREQRRPRAAATMATPLPGRAGGPATPLSPTRLSRLQEKEELRELNDRLAHYIDRVRALELENDRLLLKISEKEEVTTREVSGIKALYESELADARRVLDETARERARLQIEIGKLRAELDEVNKSAKKREGELTVAQGRVKDLESLFHRSEVELAAALSDKRGLESDVAELRAQLAKAEDGHAVAKKQLEKETLMRVDLENRCQSLQEELDFRKSVFEEEVRETRRRHERRLVEVDSSRQQEYDFKMAQALEELRSQHDEQVRLYKLELEQTYQAKLDSAKLSSDQNDKAASAAREELKEARMRLESLSYQLSGLQKQASAAEDRIRELEEAMAGERDKFRKMLDAKEQEMTEMRDVMQQQLAEYQELLDVKLALDMEINAYRKLLEGEEERLKLSPSPSSRVTVSRATSSSSGSLSATGRLGRSKRKRLEVEEPLGSGPSVLGTGTGGSGGFHLAQQASASGSVSIEEIDLEGKFVQLKNNSDKDQSLGNWRIKRQVLEGEEIAYKFTPKYILRAGQMVTVWAAGAGVAHSPPSTLVWKGQSSWGTGESFRTVLVNADGEEVAMRTVKKSSVMRENENGEEEEEEAEFGEEDLFHQQGDPRTTSRGCYVM [LMNB2] | -7.21 | -6.08 | 51.4 | 50.3 | -1.66 | 1.67 |
| MSPTPPLFSLPEARTRFTKSTREALNNKNIKPLLSTFSQVPGSENEKKCTLDQAFRGILEEEIINHSSCENVLAIISLAIGGVTEGICTASTPFVLLGDVLDCLPLDQCDTIFTFVEKNVATWKSNTFYSAGKNYLLRMCNDLLRRLSKSQNTVFCGRIQLFLARLFPLSEKSGLNLQSQFNLENVTVFNTNEQESTLGQKHTEDREEGMDVEEGEMGDEEAPTTCSIPIDYNLYRKFWSLQDYFRNPVQCYEKISWKTFLKYSEEVLAVFKSYKLDDTQASRKKMEELKTGGEHVYFAKFLTSEKLMDLQLSDSNFRRHILLQYLILFQYLKGQVKFKSSNYVLTDEQSLWIEDTTKSVYQLLSENPPDGERFSKMVEHILNTEENWNSWKNEGCPSFVKERTSDTKPTRIIRKRTAPEDFLGKGPTKKILMGNEELTRLWNLCPDNMEACKSETREHMPTLEEFFEEAIEQADPENMVENEYKAVNNSNYGWRALRLLARRSPHFFQPTNQQFKSLPEYLENMVIKLAKELPPPSEEIKTGEDEDEEDNDALLKENESPDVRRDKPVTGEQIEVFANKLGEQWKILAPYLEMKDSEIRQIECDSEDMKMRAKQLLVAWQDQEGVHATPENLINALNKSGLSDLAESLTNDNETNS [THOC1] | 0.442 | 3.3 | 49.7 | 49.5 | -0.2 | 0.218 |
